Measurements from US8192734B2, “Compositions and methods for bone strengthening” (Cornell University, priority 2007, dated 2012).
Where two headings read alike, the source gives them in different places. Marks after values point to notes of the source that are not given here.

How the values were obtained:
[1] = system: pigs fed P-adequate corn-soybean meal basal diet; experiment: Expt 2: metatarsal and femur breaking strength, three-point bending test; format: in vivo, pig; conditions: main effect, phytase 2,000 U/kg or Sr 50 mg/kg
Method: Third and 4th metatarsals in both experiments and femur (right leg) in Experiment 2 were prepared by manually removing surrounding skin, muscle and other tissues. Bones were stored in closed plastic bags at 4° C. until strength analysis. Maximal breaking load was measured using an Instron 4500 Machine (Canton, Mass.) at room temperature (23° C.) by subjecting each bone to a three-point bending test^(28). During mechanical tests, force was applied to the center of the bone held by supports 2.0 cm apart for metatarsals and 3.3 cm apart for femur. The crosshead speed was set at 50 mm/min and the sample rate was 10 points/s. Final strength was determined from load-displacement curves indicating the maximum loads. The metatarsal breaking strength was expressed as the mean strength of four bones from both left and right feet of pigs in Experiment 1, and as the mean of the two bones from the right foot of pigs in Experiment 2.

[2] = system: pigs fed P-adequate corn-soybean meal basal diet; experiment: Expt 2: BMC, BMD and bone area by dual energy X-ray absorptiometry; format: in vivo, pig
Method: In Experiment 2, bone mineral content (BMC, g) and bone mineral density (BMD, g/cm^2) of 3rd and 4th metatarsals from the left foot and femur from the left leg of each pig were measured. After being thawed to room temperature, entire bones were placed on a rice bag (to remove background effects) and scanned by dual energy X-ray absorptiometry using the GE Lunar Prodigy instrument (GE Lunar, Prodigy, Madison Wis.) in the small animal scan mode. Values of BMC and BMD were predicted by analysis of scans using Prodigy software (version 10.10.038).

[3] = system: pigs fed P-adequate corn-soybean meal basal diet; experiment: Expt 2: metatarsal and femur mineral concentrations (ICP); format: in vivo, pig
Method: After the breaking strength analysis, samples (˜100 to 200 mg) of metatarsals in both experiments and femur in Experiment 2 from the right legs were used for mineral analysis. Cortical bones were isolated after removing attached connective tissue using a stainless steel scalpel and collecting individual shards using needle-nosed pliers with plastic-covered clamps. […] Concentrations of individual elements in the dried bone samples were measured using inductively coupled argon plasma spectrophotometer (ICAP 61E Trace Analyzer, Thermo Jarell Ash corporation, Franklin, Mass.)(31). Samples were digested in a mixture of HNO3 and HClO4 (9:1, vol/vol), and then diluted in 5% HNO3 before analysis.

[4] = system: weanling pigs fed high P diet; experiment: Examples 4-8: cortical and cancellous bone ash and mineral profile; format: in vivo, pig; conditions: 8 wk
Method: As in Examples 1-3, the animal protocol was approved by Cornell Animal Care and Use Committee. An 8-week feeding trial was conducted at Cornell University Swine Research Farm. Thirty weanling pigs (Yorkshire×Hampshire×Landrace, body weight=8.6±0.5 kg) were allocated into three groups (n=10). […] were fed a corn-soy basal diet (BD)+0.25% inorganic phosphorus (iP, dicalcium phosphate). Group 2 were fed BD+0.35% iP. Group 3 were fed BD+0.35% iP+3,400 units of phytase/kg (Escherichia coli appA2, OptiPhos, JBS United, Inc., Sheridan, Ind.). The BD (Table 7) contained adequate levels of all nutrients except for P^(63), and 0.25% iP is the supplementation level recommended by NRC^(24) to meet the P needs of this age of pigs. […] Pigs were housed in an environmentally-controlled barn (20-25° C.; 12-light: 12-dark cycle), and given free access to feed and water.
After the above mechanical tests, midshaft sections of both femur and metacarpus were cut and washed with de-ionized water. The cortical thickness of both bones was measured by slide caliper in the midshaft. Cortical and cancellous bones were separated for total ash and mineral analysis. A 3-cm long and 3-mm thick midshaft of femur and 1-cm long and 1.5-mm thick midshaft of metacarpus were used for cortical ash analysis. For cancellous bone, sponge-like bone from 3-cm below the growth plate of femur and 1.5-cm below the growth plate of metacarpus were collected. For ash analysis, bones were oven-dried at 110° C. for 24 h, and incinerated in a muffle furnace at 550° C. for 96 h. Concentrations of individual elements in the ash were measured using inductively coupled argon plasma spectrophotometer (ICAP 61E Trace Analyzer, Thermo Jarell Ash corporation, Franklin, Mass.)^(63), and were expressed on ash basis.

[5] = Expt 2, plasma, phytase 2000 U/kg and/or Sr 50 mg/kg
Method: Pigs were penned in an environmentally controlled barn (20-25° C.; 12 h light: 12 h dark cycle), and were allowed free access to feed and water.
Blood samples of individual pigs were collected at initial (wk 0) and then weekly from the anterior vena cava into heparinized tubes after an overnight fast (8 h). The collected whole blood samples were chilled on ice and centrifuged at 3,000×g (GS-6KR centrifuge, Beckman Instruments Inc.) for 10 min at 4° C. to prepare plasma for assays of inorganic P concentrations and alkaline phosphatase activity.
The hydrolysis of p-nitrophenol phosphate to p-nitrophenol was used to measure plasma alkaline phosphatase activity^(27). The enzyme unit was defined as 1 μmol of p-nitrophenol released per minute at 30° C.

[6] = length x width by DXA, diets with phytase
[7] = main effect, phytase 2,000 U/kg or Sr 50 mg/kg
[8] = phytase 2000 U/kg and/or Sr 50 mg/kg, n=6
[9] = 0.35% iP + Sr 50 mg/kg + phytase 3,400 U/kg, P<0.01

B1: Phytase: Escherichia coli AppA2 phytase (OptiPhos, JBS United, Inc.), added to diets at feed mixing; AppA2 is SEQ ID NO: 2 (protein, listed as Escherichia coli)
chain: MKAILIPFLSLLIPLTPQSAFAQSEPELKLESVVIVSRHGVRAPTKATQLMQDVTPDAWPTWPVKLGWLTPRGGELIAYLGHYQRQRLVADGLLAKKGCPQPGQVAIIADVDERTRKTGEAFAAGLAPDCAITVHTQADTSSPDPLFNPLKTGVCQLDNANVTDAILSRAGGSIADFTGHRQTAFRELERVLNFSQLNLCLNREKQDESCSLTQALPSELKVSADNVSLTGAVSLASMLTEIFLLQQAQGMPEPGWGRITDSHQWNTLLSLHNAQFYLLQRTPEVARSRATPLLDLIMAALTPHPPQKQAYGVTLPTSVLFIAGHDTNLANLGGALELNWTLPGQPDNTPPGGELVFERWRRLSDNSQWIQVSLVFQTLQQMRDKTPLSLNTPPGEVKLTLAGCEERNAQGMCSLAGFTQIVNEARIPACSL
- improvement in breaking strength of femur [1]: 20%
- improvement in breaking strength of metatarsals [1]: 16%
- total bone area of femur [2, 6]: 45.8 ± 0.7 cm²
- total bone area of metatarsal [2, 6]: 9 ± 0.2 cm²
- increase of total bone area of femur ([2]; main effect, P<0.05): 5%
- increase of total bone area of metatarsal ([2]; main effect, P<0.05): 7%
- elevation of BMD of the two bones (metatarsal, femur) [2, 7]: 9 to 11%
- enhancement of BMC in both bones (metatarsal, femur) [2, 7]: 14 to 15%
- elevation of metatarsal concentration of Sr ([3]; main effect of phytase 2,000 U/kg, P<0.07): 11%
- femur Ca concentration [3, 8]: 300.3 g/kg
- femur Cr concentration [3, 8]: 7.2 mg/kg
- femur Fe concentration [3, 8]: 7.2 mg/kg
- femur Mg concentration [3, 8]: 5.3 g/kg
- femur Mn concentration [3, 8]: 0.8 mg/kg
- femur Na concentration [3, 8]: 8.3 g/kg
- femur P concentration [3, 8]: 178.6 g/kg
- femur S concentration [3, 8]: 1.0 g/kg
- femur Sr concentration [3, 8]: 94.3 mg/kg
- femur Zn concentration [3, 8]: 220.1 mg/kg
- metatarsal Ca concentration [3, 8]: 187.4 g/kg
- metatarsal Cr concentration [3, 8]: 20.5 mg/kg
- metatarsal Fe concentration [3, 8]: 15.3 mg/kg
- metatarsal Mg concentration [3, 8]: 3.5 g/kg
- metatarsal Mn concentration [3, 8]: 2.0 mg/kg
- metatarsal Na concentration [3, 8]: 7.4 g/kg
- metatarsal P concentration [3, 8]: 91.8 g/kg
- metatarsal S concentration [3, 8]: 0.9 g/kg
- metatarsal Sr concentration [3, 8]: 73.5 mg/kg
- metatarsal Zn concentration [3, 8]: 152.3 mg/kg
- decrease of P concentration in cancellous bones, femur and metacarpus ([4]; 0.35% iP + Sr 50 mg/kg + phytase 3,400 U/kg): 22 to 31%
- elevation of Sr concentration in cancellous bone, metacarpus ([4]; 0.35% iP + Sr 50 mg/kg + phytase 3,400 U/kg, P<0.002): 115 fold
- enhancement of cancellous bone ash of femur [4, 9]: 12%
- enhancement of cancellous bone ash of metacarpus [4, 9]: 5%
- increase of total ash concentration of cortical bone, metacarpals [4, 9]: 3%
- increase in Fe concentration of cancellous bone, femur ([4]; 0.35% iP + Sr 50 mg/kg + phytase 3,400 U/kg, P<0.05): 33%
- Femur cancellous bone Ca ([4]; 0.35% iP + phytase 3400 U, n=5): 311.0^b g/Kg ash
- Femur cancellous bone Cr ([4]; 0.35% iP + phytase 3400 U, n=5): 10.0 mg/kg ash
- Femur cancellous bone Fe ([4]; 0.35% iP + phytase 3400 U, n=5): 75.6^a mg/kg ash
- Femur cancellous bone Mg ([4]; 0.35% iP + phytase 3400 U, n=5): 6.0^b g/Kg ash
- Femur cancellous bone Na ([4]; 0.35% iP + phytase 3400 U, n=5): 8.3^b g/Kg ash
- Femur cancellous bone P ([4]; 0.35% iP + phytase 3400 U, n=5): 155.0^b g/Kg ash
- Femur cancellous bone S ([4]; 0.35% iP + phytase 3400 U, n=5): 1833.2^b mg/kg ash
- Femur cancellous bone Sr ([4]; 0.35% iP + phytase 3400 U, n=5): 93680.7^a mg/kg ash
- Femur cancellous bone Zn ([4]; 0.35% iP + phytase 3400 U, n=5): 395.7^a mg/kg ash
- Femur compact bone Ca ([4]; 0.35% iP + phytase 3400 U, n=5): 403.0 g/Kg ash
- Femur compact bone Cr ([4]; 0.35% iP + phytase 3400 U, n=5): 12.6 mg/kg ash
- Femur compact bone Fe ([4]; 0.35% iP + phytase 3400 U, n=5): 25.1 mg/kg ash
- Femur compact bone Mg ([4]; 0.35% iP + phytase 3400 U, n=5): 7.6 g/Kg ash
- Femur compact bone Na ([4]; 0.35% iP + phytase 3400 U, n=5): 9.4 g/Kg ash
- Femur compact bone P ([4]; 0.35% iP + phytase 3400 U, n=5): 199.0 g/Kg ash
- Femur compact bone S ([4]; 0.35% iP + phytase 3400 U, n=5): 649.9^b mg/kg ash
- Femur compact bone Sr ([4]; 0.35% iP + phytase 3400 U, n=5): 568.8^b mg/kg ash
- Femur compact bone Zn ([4]; 0.35% iP + phytase 3400 U, n=5): 278.8 mg/kg ash
- Metacarpus cancellous bone Ca ([4]; 0.35% iP + phytase 3400 U, n=5): 329.0^b g/kg ash
- Metacarpus cancellous bone Cr ([4]; 0.35% iP + phytase 3400 U, n=5): 10.7 mg/kg ash
- Metacarpus cancellous bone Fe ([4]; 0.35% iP + phytase 3400 U, n=5): 66.4^a mg/kg ash
- Metacarpus cancellous bone Mg ([4]; 0.35% iP + phytase 3400 U, n=5): 6.0 g/kg ash
- Metacarpus cancellous bone Na ([4]; 0.35% iP + phytase 3400 U, n=5): 7.6^b g/kg ash
- Metacarpus cancellous bone P ([4]; 0.35% iP + phytase 3400 U, n=5): 161.0^b g/kg ash
- Metacarpus cancellous bone S ([4]; 0.35% iP + phytase 3400 U, n=5): 1334.5^b mg/kg ash
- Metacarpus cancellous bone Sr ([4]; 0.35% iP + phytase 3400 U, n=5): 86221.0^a mg/kg ash
- Metacarpus cancellous bone Zn ([4]; 0.35% iP + phytase 3400 U, n=5): 334.3 mg/kg ash
- Metacarpus compact bone Ca ([4]; 0.35% iP + phytase 3400 U, n=5): 398.0 g/Kg ash
- Metacarpus compact bone Cr ([4]; 0.35% iP + phytase 3400 U, n=5): 13.3 mg/kg ash
- Metacarpus compact bone Fe ([4]; 0.35% iP + phytase 3400 U, n=5): 24.7 mg/kg ash
- Metacarpus compact bone Mg ([4]; 0.35% iP + phytase 3400 U, n=5): 7.2 g/Kg ash
- Metacarpus compact bone Na ([4]; 0.35% iP + phytase 3400 U, n=5): 8.6 g/Kg ash
- Metacarpus compact bone P ([4]; 0.35% iP + phytase 3400 U, n=5): 195.0 g/Kg ash
- Metacarpus compact bone S ([4]; 0.35% iP + phytase 3400 U, n=5): 763.8^b mg/kg ash
- Metacarpus compact bone Sr ([4]; 0.35% iP + phytase 3400 U, n=5): 541.4^b mg/kg ash
- Metacarpus compact bone Zn ([4]; 0.35% iP + phytase 3400 U, n=5): 307.7 mg/kg ash
- increases in Sr concentration in cancellous bones of femur and metacarpus vs 0.35% iP ([4]; phytase 3,400 U/kg into the 0.35% iP diet): > 100 fold
- Alkaline phosphatase activity ([5]; week 0 (initial)): 202.1 U/L
- Alkaline phosphatase activity ([5]; week 5 (final)): 149.9 U/L
